Target: RhiG-C-His (Bacillus subtilis ATCC6633)
Test: SEC

- stoichiometry N: 2
Substance: RhiG-C-His (enzyme)
